The NTF2 design screens of Basanta et al. (2020)

Test: protease stability score; higher = more stable; yeast display proteolysis, trypsin and chymotrypsin;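 further: relative to predicted unfolded state with 0 unfolded-like and 1 meaning tenfold more protease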

Sequence	protease stability score
SEEEKRMRDVLRRMEEALKTGDWKFLKDLLDPHTRTVINGRDRHGREFVLEVFSRFGADHSDIEDEDFQGNFVILHLEMEIGDKRIRLRIYIEKINGRWIWRHVIFD	2.85
DESKRDVKMFHEIFLRAQSTGDEDELSHLADPNVRIHQGEFHNIGMEEFVKHIREMRVHVRDSHIERVEIQGDKLIVEVRLHMEIRYNGQRTERDVNLHLIIIKINGRWILHSIHIE	1.02
SEDEEHWRKTINLLIIAIRTGNEDLFWKLLDPNTRFEVDIGDKMIDLHGREKVAEWLHRFIHKIPNLKIHIREIEFNENETRIHGETHFDGKTRTVEIIIELVDGRMKEFIFIVK	2.16
SEEKEHSDRLAEHLIHWFYTGDEDKLNELFDPNTKYVINGKELHGMESEHRERREEWRRVKNITFSIKHWDIQGNKVILHMTIHVGEKDIFVTYEYRIFDGKMKEIQVHVR	0.867
SEEEEEMRRMVDDIFRMLLTGDWRDFLHLADPTVRLHIGDKQAHGRTQVFELLKLYLHEWREKTIVHESIHHINGVSIIHGSLRVRINGQEHEFKVTWNIFIYDGRLKSMEIRFH	0.337
DEWEESHKLVSKMIADTDETGDERIKRRLLDPHARLIVDGREYHGREHMDKIWKYFGLDRIHVEVRRMHVYGDKVSLHVHSIYNGREVEVHIIIHKVDGRWHLHSVDIQ	0.596
TEEERDMKHLAELALESFLTGDFEIIKKLADPNVRSVIDGRDYHGMEEVHRYLEELLRMLGVKVSRIEDERLRIINGRVTVETDIRLNVDGKIFRVTLHFFFHKFNGRWRIEEIRIHIE	0.537
SEDDSDLEEYLRLWVKAWMTGDEDLLRTLLDPHTRFQSHVNGKEVERHGMEVVSHWLRKFKNIRFEVHHVHVVNGVLYHETRVKFDGVRIETELNAIVVDGKNKFLNIHIK	0.299
DETTEHMVHFFKETLHAIRTGDFKAQEELFDPNARVDVGDYKFHGRETISEWLRRRNEQLGFKHIEIRINHVEYINGKISVIGSVDSDINGVRIRHERREEYVVINGVLTLVRLEHR	1.12
DEEEEQAHTMLEIFLHNLVTGNEETINTLMDPHARTDIDGKIFHGRDWLEHFLRRFPHVRLHLKHIEWRVINGVAHLHLEMHVNVDGRHFDVRFHIHNEKINGRWFSHSFKYSIE	1.44
SEDEKMTEMALRLFMHTWRTGDEQVFRHLADPDYRLEVNGVEFIGWEQVTELFSRIVKRFDHMHIHLREFDDINGQADVRGTLILIQGDKEIRMETHIISKKFNGRWTHRRVHFH	0.428
DEEDEILRHFLEEFWRAIRTGDEDTLMHLMDPHAKEEVNGRELHGRHEISRHLVKLGIKHMHIDDSKRYGDKITLHITVEVNGRKIDLEVYAIKVDGRWKIEHSQIK	1.05
DEEEHIMRRVTDILVHYIATGDEDSLTRLLDPHARIIIDGRTIHGREWIQHHLRRIDHIHMHSYHIHDIRIQGDKVYADQEIDVEHRVNGVTIRKRFHVNIITVKVNGQWYLHSINNQ	1.45
DEWEEWLKAILEELRRISHTGDEDEIINNADPNVKIKIGDKLIIGREEFRRIMLELSKHFGITRFEFELHDRRIVGDKIHLDGTSRFNGVDERTTLIIMKVNGRWILRSMHVE	1.41
SEDETHFKHMWKLILDTSITGNEELLKTLFDPHYRLSVDGVEFHGREALRYWLDRVDHVEDHRIKSFELQGDKIYMNGESKTQQGDKTHSHDIHIFTKKIDGQWVIHSLHVR	1.16
HEEEEIERIAYNIYEYVRKTGDERVMTEMADPDARLIYGDKELVGREHMVQFLRWLLEQYKNVQLHIEHVEMIGDFVKIQSNLNVNGRTIEVELILLKYNGKWRIRSSVFK	1.07
DEEDEEFKRAMDDWIRAILTGDEQRVEELFDPNVRFQVNGKETVGRDFLIHYVREWRLDSKVDIKRSEVQGDKVRVDVTMKLTIDVNGQRIHDQHKVTIIAEKIDGRWEIKELIVH	0.676
HEHTKMLLDMHRLWMELWLTGDEHELEKLLDPNVRIIIHVNGVDISIHGRETVRRVLRHEIKRYDHLEINLKRHSAYDGKVESDTEFRVIFDGKRIELDTRIKNIVINGRTKEWIFELE	0.619

Sequence	protease stability score
DREEEKLLHAIKLLLHNWMTGDEDSEIDLMDPNARIVWNGVELHGMTEVRRFLHEYHRRFDVFTHTHIDHYRVIGDKAESHIRLEGSVDGRTIKHQTFILMSKYNGKWTNQTLTFE	1.13
SHEEEESTKVAEDWLRHVLTGDEEDMTKLADPNTKVDVGDKHMHGMRSYWEFLHEIRIKHVHVHRIHIELVNGRAFIIIDGEIHEEVGDKEVEIKSRFILIVEKVNGRWIIREVRYQRI	1.54
DEEDKFSREAIELWIRVLETGNEHLLHKLADPHVRVVFNGKESVGMEEFVEVLREIRIHTSRDRHVRLQGDKVDVDSIIDGEVNGVRTKVETQLIATKIDGRWVNQQVNWR	0.23
DEEEKISKEATDNFIREFETGNEEDLMKNMDPNARLIQGDKHNHGRDEASRFLVELLRDLGFKHIRLTHVRIIDGRVWVHSDLHFNGVEFKQDVIFTKINGKWTLKSLTIK	1.13
DEEHDIDRKIFEMIVDVFLTGDWKRWFDNADPDVKTEIRIGDKKIDLHGWEFFLRFLEEELRRFKNIQIMSTDVKLFNGKVDVNIEIRIGDKTQHYIYHIHTFNGVIKHVHVHSK	1.28
DEDERLAEEAVKLLIEINRTGDEDLFERNIDPNAQSDINGRRLHGMEQISEFLLRIKNIKLQPRHVDVQGDKMRVEGHLHINGQTHEVRWFVTKINGVWLITEIRVH	1.12
DEEEKTFEQIVRHLIDDLVTGDWEKLRDYFDPHVRVEIGDKRIVGRETLVDELSHWRVKHVRVELHDYRVINGRIEVHGSVDFRGNIDGRELRHSYETKIIFDKINGRWTLQSHHVL	1.21
DHMEEDVRVAVKIWEETYRTGDEQEINDLVDPNVRVNINGQDYHGRHWLRQIIIEDRRRADHIEIRIDHIEVIGDKVILRGLVIMIQGDKRFDIRMRIFDRKVNGRWHLHNLEQE	2.08
DEDRKIFKLVFEITKHAWETGDEEHLDRLLDPNTRIEIGDKILHGREHIEEWVDRVDHLHLHHFRLDDYRYQGDKAIIHGHVNGTSVIDGRSERYTSTIDFIVLKVNGRWRLHSVRVT	1.41
SEQSKHVKDMFDTWVHSERTGDWRVAKELVDPNARIDINGREFHGMEEAERLAHEIFTRIDHKELRIDHVHFINGVFKVEGTVIFRQGDKQFTIETRIHLFVINGRLKELKVEFI	1.15
DEDREHVERIVDILIHSFKTGDESFLENYLDPNARLEVGDKTHHGREEVKKLVIRWWHELGIKHVHVDKKTTIDGRIIIHLTILFNGRRFETELIWVIVDGVINKVDIRIQER	1.45
SEEEEFSHNLLNFMLHVIHTGDFDLLLDLMDPDTRVDINGKRHHGRDAMRIWVTLLGIERVETDVHHISIYGDKARIDGRVHYNGKTQRFEIHSRKIDGKWLNTEIKWD	1.09
DEDHKHSEEAIKRWIDTMVTGDERLFNHLADPHTKIEFNGVDNHGMEEAVRVMIFIFRLLGVDHIRIEFRERHVFNGKVVWHFHLERRIGDKTEHINTHILMEKVDGRWLIQSERYE	1.56
DEEKEHAKEMLELHLRLWLTGNEDKLHRLADPHVRMTIDGKEFIGREEMIKAIREHLKRLGVDHVRIHWTRLHVVDGQIDLHTHIRLHVDGRTIEIESEIISVVFNGVMKSIEWKFK	1.38
DESTHNRKIAVEILEHDNKTGDEKSIFRLFDPHVKIEVDGRDYHGREFFEEFIRKLGWTNIELTIKDVRSIGEFAEMRMEVRYGDWHFHTKVDVKKYNGQWLNREVRIA	1.44
SDLREEVKEFLKLLVEAFETGDEEALHELMDPNTRFRYGDKDLIGMKILERWWHELFRHLGVDRFRIELRVHHVTIINGQMHNDGTLIIRQGDKEERFKINLVIEKIDGRWIIHMVIFE	0.893
DEDEDTAHETWKILVHSLITGDERTMELLMDPNVQVHVGDKRHIGRERASRFHSEIRTEHVEMRTSEMQGNKVILHGRVVMRVNGKTLDHDFHLILDKIDGKWYITEIRFK	0.517
DEERHEALRVAKEFMHNFWTGNEELNRHLIDPNVRLTIEVGDKRIDRVGRESFSHTLHRWREHLRIEDLDETRIDVQGDKAVLHTIMHIKIGDKHITVEVDINILVVDGRLRHIRVIVR	2.01
